Laboratory results: paper PMC8184657

Target: insulin (bovine insulin) (bovine)
Test: ITC

**Q.** Which results are given for IS1 (tetrapeptide VYYR)?
**A.** Ka: 0.00346 M⁻¹; dH: -18.7 kcal/mol
